Laboratory results: paper PMC9477280 (PLoS Pathogens, 2022)

B1: JVA-F6 (VHH)
VHH: SGGGLVQAGDSLRLSCVTSGRSFSEAAMGWFRQAPGKERELMTSIGWNGDRTYYADSVKGRFTISRDNAKNTVYLQMNGLTPNDTAVYYCAAAVRASKGYEYWGQGTQVTVSS
notes: also called αTir-11; JVF-7 (vector name); not shown: thioredoxin, N-terminal, kept; E-tag, C-terminal, kept
B2: JVA-G1 (VHH)
VHH: SGGGLAQAGGSLKLSCVASGFTFADYAIGWFRQAPGKEREGVACISNSVGSTYYSDSVKGRVTISSDNVKKTVYLQMNSLKPEDTAFYYCALIDHGMNCRNSNGIHYWGKGTLVTVSS
notes: also called αTir-14; JVF-14 (vector name); not shown: thioredoxin, N-terminal, kept; E-tag, C-terminal, kept
B3: JVB-C6 (VHH)
VHH: TGGGLVQPGGSLTLSCAASGFSITENAMGWARQVPGKGLEWVSLVYSGGNTYYAESIEGRFTISRDNAKNTVYLRMTSLKPEDTGVYYCAAREAVRVAGPPADVWGQGTQVTVSS
notes: also called αTir-1; JVG-1 (vector name); not shown: thioredoxin, N-terminal, kept; E-tag, C-terminal, kept
B4: JVA-D11 (VHH)
VHH: SGGGLVQAGGSLRLSCAASGFTFNDYAKAWFRRAPGKEREGISAISSMGESTFYADSVKGRFTISSDSAKNTVYLQMNSLKPEDTAVYYCAADPTVKWGHVLREENYDYWGQGTQVTVVS
notes: also called αTir-12; JVF-8 (vector name); not shown: thioredoxin, N-terminal, kept; E-tag, C-terminal, kept
B5: JVC-E5 (VHH)
VHH: TGGGTVQAGSSLRLSCTASGFTFTDAAMGWFRQAPGKEREFVAAINWDSANKYYADSVKGRFTISRDNAKNTVYLEMTALKPEDTADYICAGDAKLGHVATSDVWRFWGQGTQVTVSS
notes: also called αTir-6; JVI-3 (vector name); not shown: thioredoxin, N-terminal, kept; E-tag, C-terminal, kept
B6: JVA-E10 (VHH)
VHH: SGGGLVQAGGSLRLSCVASGRTFSDYAMGWFRQAPGKEREFVAAISWNGGSTYYADSVKGRFTISRDNAKNTMYLQMNSLKSEDTAVYYCISEGRGLRQVKTATDWEYWGQGTQVTVSP
notes: also called αTir-13; JVF-12 (vector name); not shown: thioredoxin, N-terminal, kept; E-tag, C-terminal, kept
B7: JVC-C6 (VHH)
VHH: SGGGLVQAGGSLRLSCAASGVTFVDYATGWFRQAPGKEREGIACISNGASGSFVVNSVKGRFTTSTDNAKNTAYLQMNDLKPEDTATYYCALLGRTGGHCTDPNEYSYWGQGTQVTVSS
notes: also called αTir-4; JVI-1 (vector name); not shown: thioredoxin, N-terminal, kept; E-tag, C-terminal, kept
B8: JVB-G8 (VHH)
VHH: TGGGLVQAGGSLRLSCVASGFTFNDYVLTWFRQAPGKGREGVASISPAFGNTFYADSVKGRFTITSDSAKKQVCLQMNNLKSEDTAVYFCAADPTVNFGPVLRAENYRHWGQGTQVTVSS
notes: also called αTir-3; JVG-3 (vector name); not shown: thioredoxin, N-terminal, kept; E-tag, C-terminal, kept
B9: JVA-A1 (VHH)
VHH: SGGSVEAGDSLRLSCAASGRGFGDGALAWFRQAPGKEREYVAAVGHSGTDTYYADSVKGRFTISRDNAKNMGYLQMDSLRPDDTGVYYCALDLHLGQPGYDYWGQGTQVTVSS
notes: also called αTir-7; JVF-1 (vector name); not shown: thioredoxin, N-terminal, kept; E-tag, C-terminal, kept
B10: JVA-C9 (VHH)
VHH: TGGGLVQAGGSLRLSCVDSGRTFGDNAMGWFRQAPGKEREYVAAIGYNGDSTYYLNSVKGRFTISRDNAKNTLYLQMNSLQLEDTGVYICAAKTRVTTKEYDFWGQGTQVTVSS
notes: also called αTir-9; JVF-3 (vector name); not shown: thioredoxin, N-terminal, kept; E-tag, C-terminal, kept
B11: JVB-G4 (VHH)
VHH: SGGGLVEAGGSLRLSCSASGRASGDGHLGWFGDGALAWFRQAPGKEREYVAAVGHSGTDTYYSDSVKGRFTISRDNAKSMGYLQMDNLRPDDTGIYYCALDLHLGQPGYDYWGQGTQVIVSS
notes: also called αTir-2; JVG-2 (vector name); not shown: thioredoxin, N-terminal, kept; E-tag, C-terminal, kept
B12: JVA-C8 (VHH)
VHH: SGGGLVQAGGSLRLSCAASGFTFVDYGIAWVRQAPGKEREGVSCVSTSNRSQWYADSVKGRFTISSDNAKNTVYLQMDNLKPEDTAVYYCTRIDVGDNCRDGGGYRGQGTQVTISS
notes: also called αTir-8; JVF-2 (vector name); not shown: thioredoxin, N-terminal, kept; E-tag, C-terminal, kept
B13: JVA-D4 (VHH)
VHH: TGGGLAQAGGSLRLSCATSGFTFADYAIGWFRQAPGKEREGVACISTSDNGQYSADSVKGRFTISKDNAKKTVYLQMNSLKPDDTAIYYCHLIDVGSNCRKGKDDGFWGQGTQVTVSS
notes: also called αTir-10; JVF-4 (vector name); not shown: thioredoxin, N-terminal, kept; E-tag, C-terminal, kept
B14: JVC-D10 (VHH)
VHH: TGGLVQTGDSLTLSCVVSGRGFCDWAMAWFRQAPGKEREKVSAIGWSGQDTYYSEPAKGRFTISRDNAKNTVWLRMTNLKSEDTAVYYCAAATRAYADYDYWGQGTQVTVSS
notes: also called αTir-5; JVI-2 (vector name); not shown: thioredoxin, N-terminal, kept; E-tag, C-terminal, kept

Target: T1, EPEC Tir (enteropathogenic E. coli (EPEC), UniProt B7UM99)
T1 construct: also called GST-tagged EPEC Tir; recombinant his-tagged Tir
T1 sequence (B7UM99 whole entry): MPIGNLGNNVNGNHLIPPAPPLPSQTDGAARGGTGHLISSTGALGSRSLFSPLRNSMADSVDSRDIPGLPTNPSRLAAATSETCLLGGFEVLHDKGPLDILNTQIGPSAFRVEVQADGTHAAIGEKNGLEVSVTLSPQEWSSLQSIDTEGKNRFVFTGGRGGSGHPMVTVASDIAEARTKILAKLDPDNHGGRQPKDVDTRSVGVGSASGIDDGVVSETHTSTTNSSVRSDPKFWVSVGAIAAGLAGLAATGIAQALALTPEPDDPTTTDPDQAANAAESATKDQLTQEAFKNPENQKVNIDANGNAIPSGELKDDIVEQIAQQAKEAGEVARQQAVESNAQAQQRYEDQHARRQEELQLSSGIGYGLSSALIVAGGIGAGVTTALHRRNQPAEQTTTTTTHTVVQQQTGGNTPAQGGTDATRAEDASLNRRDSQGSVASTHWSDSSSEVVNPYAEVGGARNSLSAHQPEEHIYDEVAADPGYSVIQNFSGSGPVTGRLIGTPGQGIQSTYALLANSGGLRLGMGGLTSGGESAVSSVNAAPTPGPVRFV
Assay: ELISA; capture dilution ELISA; plate coated with 5 μg/mL of a non-competing VHH (no thioredoxin, no E-tag), antigen at 1 μg/mL captured for 1 h at 37°C (S1 Fig c-d: EPEC Tir, REPEC Tir); thioredoxin/VHH/E-tag from 125 nM in 1:5 serial dilutions; HRP anti-E-tag; EC50 estimates (apparent affinity); trace = EC50 >125 nM
Details: both partners purified

Row | Binder | EC50 [nM]
1 | B1 | 25
2 | B2 | 0.2
3 | B3 | 50
4 | B4 | 0.2
5 | B5 | 0.2
6 | B6 | 0.2
7 | B7 | 0.2
8 | B8 | 0.2
9 | B9 | 10
10 | B10 | 5
11 | B11 | 0.1
12 | B12 | 0.2
13 | B13 | 0.5
14 | B14 | 0.2
